What all share (details): 10 mM Tris-HCl pH 7.5, 50 mM NaCl, 1 mM MgCl2, 0.5 mM EDTA, 0.5 mM DTT, 0.05 mg/ml poly(dI-dC), room temperature, 30 min; footprinting: same buffer, then …
Data set [1] concerns T1, His-AphA (Vibrio parahaemolyticus RIMD 2210633), ORF:4cf93ac0.
T1 sequence: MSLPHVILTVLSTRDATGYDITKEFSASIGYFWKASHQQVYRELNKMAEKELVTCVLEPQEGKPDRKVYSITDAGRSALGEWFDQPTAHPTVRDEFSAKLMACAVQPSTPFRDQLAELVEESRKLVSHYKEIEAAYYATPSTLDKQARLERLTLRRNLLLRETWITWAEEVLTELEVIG
The experiment in a line: EMSA.

Data set [2] deals with T2, His-OpaR (Vibrio parahaemolyticus RIMD 2210633) (UniProt Q79YV4).
T2 sequence: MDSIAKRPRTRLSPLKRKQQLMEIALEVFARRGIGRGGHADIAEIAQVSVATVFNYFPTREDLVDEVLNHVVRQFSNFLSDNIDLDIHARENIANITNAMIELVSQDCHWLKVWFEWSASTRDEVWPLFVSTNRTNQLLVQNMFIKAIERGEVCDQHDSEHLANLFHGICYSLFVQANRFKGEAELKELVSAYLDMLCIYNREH
The experiment in a line: EMSA.

Data set [3] deals with T1, His-AphA (Vibrio parahaemolyticus RIMD 2210633), ORF:4cf93ac0. The experiment in a line: DNase I footprinting.
Data set [4] deals with T2, His-OpaR (Vibrio parahaemolyticus RIMD 2210633). The experiment in a line: DNase I footprinting.

Take “TTGTGGAAACTCGTTATGGTCAATACCAATTTCATGAAAAACCTCGCCAAAGACCTGCTAAATATTTATATATCGATTTTTATAATTAGATTTGAAGCTTTAATTATTAACATTAAGATTAATAGAGTTCTTATAGCTGTTATAAAAACTATTGACGGCATAATGAATCATTTTTTTATCAAAGCAATCATGAATTGTTGAACAATTTTAAATATCCAACCAGGTTCAAATTTTTGACACTCAAACTTTCACCCGTCAA (double strand) [VPA1044 promoter probe (EMSA and footprinting)]”: the binding entry in data set [1] is on record as “no binding”; in data set [2], “binds”; in data set [3] it was “no binding”; in data set [4], “binds”.
“GAGTTGCTTCATAATAACTATTATTAGTTATAAATATCGCTTAATTTAAATCTAATTTAAAGATATAAAGGAGCGTATTTAAAATGAAGTTTTTGATACATCAATCATTAATTATCATTATTCAGATAATTTAATTAATACGAAATATGTCAATTAATAATGCTCTAGGAGATTAGCATGCAGTCTAATACGTATCTTAAATACGCAGATATTAAAGGTGAAGCGACAGCGGAAC (double strand) [VPA1027 (hcp2) promoter footprinting probe]”: the binding entry in data set [3] is listed as “no binding”; in data set [4] it was “binds”.
As to “AGCGGAGTCTTGTTTATTAACGTTTTTAGCGGGTTCAATTGCATTTTCTCTTTTTTGAGTCTTTACAATTTTTGTTTTATCTCCGCTATCGCTGCTATTTATAGATTTGTCTTTATTTTTTTCTTCCATCACAAGGACTCCATATAAATGATGGGGTTAATATATATATTCCTGCTAAATGAAAAATACTTCGGTTAGATTTTCTCG (double strand) [VPA1043 promoter probe (EMSA and footprinting)]”, the binding result is recorded as “no binding” in data set [1], “binds” in data set [2], “no binding” in data set [3] and “binds” in data set [4].

The values are drawn from article PMC3744643.
